The record followed here is article PMC12159149.

In the assay the target is geCHO.sE2.7 (secreted HCV E2 ectodomain produced in glycoengineered CHO line 7) (hepatitis C virus, genotype 1a (H77C)). As to the kind of experiment: ELISA.

Regarding “CD81 large extracellular loop (LEL)-Fc fusion”, the OD at 450 nm at the highest concentration of CD81-LEL-Fc (2.8 μM) came to 0.4 OD.
